Among the data in paper PMC2906322 are reduction of binding against wild-type RhoGDIα values, retold here.

The test addresses RhoGDIα S34D (phosphomimetic), bacterially expressed, hexahistidine-tagged (human) (UniProt P52565). Nature of the test: pull-down.
Chain of UniProt P52565 (P52565 whole entry S34D): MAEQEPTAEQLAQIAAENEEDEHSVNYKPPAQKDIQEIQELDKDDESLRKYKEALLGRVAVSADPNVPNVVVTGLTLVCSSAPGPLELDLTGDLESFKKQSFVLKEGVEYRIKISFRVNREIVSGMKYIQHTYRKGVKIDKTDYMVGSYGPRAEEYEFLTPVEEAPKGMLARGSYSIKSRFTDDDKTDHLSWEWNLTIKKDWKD

With “RhoA, endogenous in rat embryo fibroblasts (from UniProt P61589 1-193) (natural protein)”, the reduction of binding against wild-type RhoGDIα stood at 75%.
